# T1: wild type human Kv3.3 (KCNC3) voltage-gated potassium channel subunit (human, UniProt Q14003 1-757)
# T1 sequence: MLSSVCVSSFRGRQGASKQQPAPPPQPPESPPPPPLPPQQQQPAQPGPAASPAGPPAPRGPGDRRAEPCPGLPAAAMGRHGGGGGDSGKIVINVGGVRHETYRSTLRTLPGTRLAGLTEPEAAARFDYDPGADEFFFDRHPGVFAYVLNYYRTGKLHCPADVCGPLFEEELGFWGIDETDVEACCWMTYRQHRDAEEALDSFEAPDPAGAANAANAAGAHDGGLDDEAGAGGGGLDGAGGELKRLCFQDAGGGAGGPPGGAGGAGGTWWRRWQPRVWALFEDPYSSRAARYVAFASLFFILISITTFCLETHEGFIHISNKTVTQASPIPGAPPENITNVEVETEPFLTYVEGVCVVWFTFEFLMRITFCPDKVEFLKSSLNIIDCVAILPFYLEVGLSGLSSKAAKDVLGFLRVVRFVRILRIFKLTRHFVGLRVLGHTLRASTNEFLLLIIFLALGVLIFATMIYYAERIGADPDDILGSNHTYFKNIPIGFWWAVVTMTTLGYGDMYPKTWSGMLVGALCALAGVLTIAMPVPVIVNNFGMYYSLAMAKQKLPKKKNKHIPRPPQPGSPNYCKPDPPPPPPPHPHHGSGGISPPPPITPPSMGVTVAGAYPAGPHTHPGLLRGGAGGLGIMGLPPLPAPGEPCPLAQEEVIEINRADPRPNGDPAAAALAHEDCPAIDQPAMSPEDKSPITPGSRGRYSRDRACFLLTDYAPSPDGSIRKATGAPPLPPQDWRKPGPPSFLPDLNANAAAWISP
# B1: Kv3.3 R423H mutant subunit (other)
# chain: MLSSVCVSSFRGRQGASKQQPAPPPQPPESPPPPPLPPQQQQPAQPGPAASPAGPPAPRGPGDRRAEPCPGLPAAAMGRHGGGGGDSGKIVINVGGVRHETYRSTLRTLPGTRLAGLTEPEAAARFDYDPGADEFFFDRHPGVFAYVLNYYRTGKLHCPADVCGPLFEEELGFWGIDETDVEACCWMTYRQHRDAEEALDSFEAPDPAGAANAANAAGAHDGGLDDEAGAGGGGLDGAGGELKRLCFQDAGGGAGGPPGGAGGAGGTWWRRWQPRVWALFEDPYSSRAARYVAFASLFFILISITTFCLETHEGFIHISNKTVTQASPIPGAPPENITNVEVETEPFLTYVEGVCVVWFTFEFLMRITFCPDKVEFLKSSLNIIDCVAILPFYLEVGLSGLSSKAAKDVLGFLRVVRFVRILHIFKLTRHFVGLRVLGHTLRASTNEFLLLIIFLALGVLIFATMIYYAERIGADPDDILGSNHTYFKNIPIGFWWAVVTMTTLGYGDMYPKTWSGMLVGALCALAGVLTIAMPVPVIVNNFGMYYSLAMAKQKLPKKKNKHIPRPPQPGSPNYCKPDPPPPPPPHPHHGSGGISPPPPITPPSMGVTVAGAYPAGPHTHPGLLRGGAGGLGIMGLPPLPAPGEPCPLAQEEVIEINRADPRPNGDPAAAALAHEDCPAIDQPAMSPEDKSPITPGSRGRYSRDRACFLLTDYAPSPDGSIRKATGAPPLPPQDWRKPGPPSFLPDLNANAAAWISP
# B2: Kv3.3 R366H mutant subunit (other)
# chain: MLSSVCVSSFRGRQGASKQQPAPPPQPPESPPPPPLPPQQQQPAQPGPAASPAGPPAPRGPGDRRAEPCPGLPAAAMGRHGGGGGDSGKIVINVGGVRHETYRSTLRTLPGTRLAGLTEPEAAARFDYDPGADEFFFDRHPGVFAYVLNYYRTGKLHCPADVCGPLFEEELGFWGIDETDVEACCWMTYRQHRDAEEALDSFEAPDPAGAANAANAAGAHDGGLDDEAGAGGGGLDGAGGELKRLCFQDAGGGAGGPPGGAGGAGGTWWRRWQPRVWALFEDPYSSRAARYVAFASLFFILISITTFCLETHEGFIHISNKTVTQASPIPGAPPENITNVEVETEPFLTYVEGVCVVWFTFEFLMHITFCPDKVEFLKSSLNIIDCVAILPFYLEVGLSGLSSKAAKDVLGFLRVVRFVRILRIFKLTRHFVGLRVLGHTLRASTNEFLLLIIFLALGVLIFATMIYYAERIGADPDDILGSNHTYFKNIPIGFWWAVVTMTTLGYGDMYPKTWSGMLVGALCALAGVLTIAMPVPVIVNNFGMYYSLAMAKQKLPKKKNKHIPRPPQPGSPNYCKPDPPPPPPPHPHHGSGGISPPPPITPPSMGVTVAGAYPAGPHTHPGLLRGGAGGLGIMGLPPLPAPGEPCPLAQEEVIEINRADPRPNGDPAAAALAHEDCPAIDQPAMSPEDKSPITPGSRGRYSRDRACFLLTDYAPSPDGSIRKATGAPPLPPQDWRKPGPPSFLPDLNANAAAWISP
# Target: T1, wild type human Kv3.3 (KCNC3) …
# Assay: cell-based or functional assay
"current amplitudes measured at +60 mV, 1:1 expression ratio of wild type and R423H, Xenopus oocytes","current amplitudes, 1:1 expression ratio of wild type and R366H, Xenopus oocytes",Binder
~20 % of wild type expressed alone,,B1
,~50 % of wild type expressed alone,B2
